Assay results published in patent publication US20240150440A1 (LUMEN BIOSCIENCE, published 2024).
Changes are numbered by the printed parent chain. Numbers in names are those of the source.

B1: PP907 MBP-5HVZ-S1b-E11-H6 (VHH)
VHH: QVQLVESGGGLVQPGGSLRLSCAASGSYASIASMHWFRQAPGKEREFVAGVTSGGSTNYGDSVKGRFTISRDNAKNTVYLQMNSLKPEDTAVYYCNALAGANYESQWEEYNYWGQGTQVTVSS
notes: Form: Dimer
B2: PP910 MBP-5HVZ-S2b-C10-H6 (VHH)
VHH: QVQLVESGGGLVQPGGSLRLSCAASGSAFSLNYMAWFRQAPGKQREGVAIIGSGGSSDYADSVKGRFTISRDNAKNTVYLQMNSLKPEDTAVYYCAAQPNGSPDDFDYWGQGTQVTVSS
notes: Form: Dimer
B3: PP911 MBP-5HVZ-S2b-F7-H6 (VHH)
VHH: QVQLVESGGGLVQPGGSLRLSCAASGSTLSNNAMHWFRQAPGKAREFVAAIGSSDSTDYKDSVKGRFTISRDNAKNTVYLQMNSLKPEDTAVYYCTALLDSGPGEYNYWGQGTQVTVSS
notes: Form: Dimer
B4: PP909 MBP-5HVZ-S2b-A7-H6 (VHH)
VHH: QVQLVESGGGLVQPGGSLRLSCAASGSSDSWNALHWFRQAPGKEREFVAGISSAGSGYYADSVKGRFTISRDNAKNTVYLQMNSLKPEDTAVYYCNGYEHTTGYDYWGQGTQVTVSS
notes: Form: Dimer
B5: PP914 MBP-5HVZ-S3a-H1-H6 (VHH)
VHH: QVQLVESGGGLVQPGGSLRLSCAASGGIYSPYSMHWFRQAPGKAREWVAGIVGGGGTTYSDSVKGRFTISRDNAKNTVYLQMNSLKPEDTAVYYCNANYQEYDEYDYWGQGTQVTVSS
notes: Form: Dimer
B6: PP908 MBP-5HVZ-S2a-C4-H6 (VHH)
VHH: QVQLVESGGGLVQPGGSLRLSCAASGFSESINATAWFRQAPGKQREGVAGLDGGGSDYYSDSVKGRFTISRDNAKNTVYLQMNSLKPEDTAVYYCAAQLTSSFRGYDFTPSNYDYWGQGTQVTVSS
notes: Form: Dimer
B7: PP915 MBP-5HVZ-S3b-A7-H6 (VHH)
VHH: QVQLVESGGGLVQPGGSLRLSCAASGSIASINAIHWVRQAPGKQREEVAAITSGGSTGYADSVKGRFTISRDNAKNTVYLQMNSLKPEDTAVYYCAAQPGQSYAVWGQGTQVTVSS
notes: Form: Dimer
B8: MBP-5HVZ-R5D-E4-H6 (VHH, not shown: large carriers; small tags and cut ends)
VHH: QVQLVESGGGLVQPGGSLRLSCAASGQISSNNGMHWFRQAPGKRREFVATATTGGTTSYADSVKGRFTISRDNAKNTVYLQMNSLKPEDTAVYYCTALLMSRAGEFDYWGQGTQVTVSS
B9: MBP-5HVZ-R5D-G6-H6 (VHH, not shown: large carriers; small tags and cut ends)
VHH: QVQLVESGGGLVQPGGSLRLSCAASGRILAANIVHWYRQAPGKNREGVAGITSGGSTYYADSVKGRFTISRDNAKNTVYLQMNSLKPEDTAVYYCAAKPLGSPDDFDYWGQGTQVTVSS
B10: MBP-5HVZ-R5E-G2-H6 (VHH, not shown: large carriers; small tags and cut ends)
VHH: QVQLVESGGGLVQPGGSLRLSCAASGTIKSINAMHWFRQAPGKAREFVASIGSNGAKSYSDSVKGRFTISRDNAKNTVYLQMNSLKPEDTAVYYCTALITVAESDDYDYWGQGTQVTVSS
B11: MBP-R5D-D4-H6 (VHH, not shown: large carriers; small tags and cut ends)
VHH: QVQLVESGGGLVQPGGSLRLSCAASGSDFTINAMHWFRQAPGKQREFVATITSTSSTAYRDSVKGRFTISRDNAKNTVYLQMNSLKPEDTAVYYCAAFAVRDADTAGWTARDYWGQGTQVTVSS
B12: MBP-5HVZ-R5D-G1-H6 (VHH, not shown: large carriers; small tags and cut ends)
VHH: QVQLVESGGGLVQPGGSLRLSCAASGSIFGINDVHWFRQAPGKEREFVATITNGLSARYKDSVKGRFTISRDNAKNTVYLQMNSLKPEDTAVYYCAAQVYITTYELYDYWGQGTQVTVSS
B13: MBP-5HVZ-R5D-F3-H6 (VHH, not shown: large carriers; small tags and cut ends)
VHH: QVQLVESGGGLVQPGGSLRLSCAASGSQLSINYVHWFRQAPGKQREFVAAITITGSSYYADSVKGRFTISRDNAKNTVYLQMNSLKPEDTAVYYCNTVDRTDNYGYDYWGQGTQVTVSS
B14: PP1157 MPB-scTRP-PAPA-R2d-A6-H6 (VHH)
VHH: B1 VHH with Y28G, A32G, S33A, E44G, F47W, G50S, V51I, G54A, S56N, N58Y
notes: Form: Trimer
B15: PP1133 MBP-4B0F-PAPA-R2d-A6-H6 (VHH)
VHH: B1 VHH with Y28G, A32G, S33A, E44G, F47W, G50S, V51I, G54A, S56N, N58Y
notes: Form: Heptamer
B16: PP1145 MBP-5HVZ-PAPA-R2d-A6-H6 (VHH)
VHH: B1 VHH with Y28G, A32G, S33A, E44G, F47W, G50S, V51I, G54A, S56N, N58Y
notes: Form: Dimer
B17: PP1146 MBP-5HVZ-PAPA-R2d-D3-H6 (VHH)
VHH: QVQLVESGGGLVQPGGSLRLSCAASGHIFSINNAAWVRQAPGKSREGVATIHSGGGTYYSDSVKGRFTISRDNAKNTVYLQMNSLKPEDTAVYYCNAEVSTGAGSRGRVSDVYWGQGTQVTVSS
notes: Form: Dimer
B18: PP1158 MPB-scTRP-PAPA-R2d-D3-H6 (VHH)
VHH: B17 VHH
notes: Form: Trimer
B19: PP1134 MBP-4B0F-PAPA-R2d-D3-H6 (VHH)
VHH: B17 VHH
notes: Form: Heptamer
B20: PP1181 R2d-D3-PP7-H6 (VHH)
VHH: B17 VHH
B21: PP1894 S3B-C8_smAKAP-C16S_R2B-D5_H6 (VHH)
chain: QVQLVESGGGLVQPGGSLRLSCAASGSIENIERMHWYRQAPGKQRELVAVIDSGGTTRYADSVKGRFTISRDNAKNTVYLQMNSLKPEDTAVYYCAAVWLTNAESTQEYWGQGTQVTVSSTVILEYAHRLSQDILSDALQQWASQVQLVESGGGLVQPGGSLRLSCAASGYADEINMVHWYRQAPGKGREFVAAIASGGSTFYADSVKGRFTISRDNAKNTVYLQMNSLKPEDTAVYYCAAIPRPSLSYAHDYAYWGQGTQVTVSSHHHHHH
B22: PP1895 S3B-C8_smAKAP-C16S_S3B-C8_H6 (VHH)
chain: QVQLVESGGGLVQPGGSLRLSCAASGSIENIERMHWYRQAPGKQRELVAVIDSGGTTRYADSVKGRFTISRDNAKNTVYLQMNSLKPEDTAVYYCAAVWLTNAESTQEYWGQGTQVTVSSTVILEYAHRLSQDILSDALQQWASQVQLVESGGGLVQPGGSLRLSCAASGSIENIERMHWYRQAPGKQRELVAVIDSGGTTRYADSVKGRFTISRDNAKNTVYLQMNSLKPEDTAVYYCAAVWLTNAESTQEYWGQGTQVTVSSHHHHHH
B23: PP1892 R2B-D5_smAKAP-C16S_S3B-C8_H6 (VHH)
chain: QVQLVESGGGLVQPGGSLRLSCAASGYADEINMVHWYRQAPGKGREFVAAIASGGSTFYADSVKGRFTISRDNAKNTVYLQMNSLKPEDTAVYYCAAIPRPSLSYAHDYAYWGQGTQVTVSSTVILEYAHRLSQDILSDALQQWASQVQLVESGGGLVQPGGSLRLSCAASGSIENIERMHWYRQAPGKQRELVAVIDSGGTTRYADSVKGRFTISRDNAKNTVYLQMNSLKPEDTAVYYCAAVWLTNAESTQEYWGQGTQVTVSSHHHHHH
B24: MBP-5HVZ-R5D-B2-H6 (VHH, not shown: large carriers; small tags and cut ends)
VHH: QVQLVESGGGLVQPGGSLRLSCAASGSIWSIAFMSWYRQAPGKGREWVAAITTGNDEAYADSVKGRFTISRDNAKNTVYLQMNSLKPEDTAVYYCAANTYERTPDGRTFSYWGQGTQVTVSS
B25: MBP-5HVZ-R5C-F5-H6 (VHH, not shown: large carriers; small tags and cut ends)
VHH: QVQLVESGGGLVQPGGSLRLSCAASGSYFKINSLAWFRQAPGKAREVVAAIHSGDGTNYADSVKGRFTISRDNAKNTVYLQMNSLKPEDTAVYYCAADQAWVRAGTYDYWGQGTQVTVSS
B26: MBP-5HVZ-R5C-F6-H6 (VHH, not shown: large carriers; small tags and cut ends)
VHH: QVQLVESGGGLVQPGGSLRLSCAASGQTNSILAMHWYRQAPGKQREAVATITSGSNSTYADSVKGRFTISRDNAKNTVYLQMNSLKPEDTAVYYCAARNGKLSPKANQRLYWGQGTQVTVSS
B27: MBP-5HVZ-R5C-G6-H6 (VHH, not shown: large carriers; small tags and cut ends)
VHH: QVQLVESGGGLVQPGGSLRLSCAASGSIESINAIHWFRQAPGKAREEVAAITENDVDYYADSVKGRFTISRDNAKNTVYLQMNSLKPEDTAVYYCASLSSGYQYVGFRYWGQGTQVTVSS
B28: MBP-5HVZ-R5D-A1-H6 (VHH, not shown: large carriers; small tags and cut ends)
VHH: QVQLVESGGGLVQPGGSLRLSCAASGSISSYNAMHWFRQAPGKQREWVAGLTSSGSDGYVDSVKGRFTISRDNAKNTVYLQMNSLKPEDTAVYYCNAFSYHTYSRYDFWGQGTQVTVSS
B29: MBP-5HVZ-R5C-F3-H6 (VHH, not shown: large carriers; small tags and cut ends)
VHH: QVQLVESGGGLVQPGGSLRLSCAASGTIPSINYTAWYRQAPGKQRELVASLTSGDNRYYTDSVKGRFTISRDNAKNTVYLQMNSLKPEDTAVYYCNAKTVGSSYRDSYNYWGQGTQVTVSS

target: T1, recombinant SARS-CoV-2 RBD with C-terminal AviTag (SARS-CoV-2, UniProt P0DTC2 319-541); assay: ELISA, competition with coated ACE2-Fc for RBD [Cont. 7]

In order of falling IC50:
1. B2  405 nM
2. B3  43.6 nM
3. B1  15.9 nM
4. B6  13.1 nM
5. B4  5.9 nM
6. B5  4.3 nM

target: T1, recombinant SARS-CoV-2 RBD with …; assay: BLI, biotinylated RBD on streptavidin biosensors

In order of rising Kd:
1. B7  2.63 nM
2. B4  22.5 nM
3. B3  44.3 nM
4. B2  54 nM
5. B6  219 nM

target: T1, recombinant SARS-CoV-2 RBD with …; assay: not given

In order of falling IC50:
1. B13  29.3 nM
2. B8  13.7 nM
3. B12  12.4 nM
4. B9  3.2 nM

In order of falling Kd:
1. B11  100 nM
2. B9  31.3 nM
3. B8  9.34 nM
4. B10  3.14 nM

target: T1, recombinant SARS-CoV-2 RBD with …; assay: ELISA, competition with coated ACE2-Fc for RBD [Cont. 1]

In order of rising IC50:
1. B17  2.1 nM
2. B16  3.8 nM
3. B14  4.7 nM
4. B15  11 nM
5. B19  27.7 nM
6. B18  43.4 nM
7. B20  282 nM

target: SARS-COV-2 Wuhan Reference RBD (SARS-CoV-2, UniProt P0DTC2 319-541); assay: ELISA, RBD coated

In order of falling EC50:
1. B5  3.24 nM
2. B1  3 nM
3. B3  2.36 nM
4. B6  1.59 nM
5. B16  1.33 nM
6. B7  1.05 nM
7. B4  0.62 nM

target: T1, recombinant SARS-CoV-2 RBD with …; assay: not given; remark: another data set of the same source

In order of falling Kd:
1. B22  2.06 nM
2. B21  0.44 nM
3. B23  0.33 nM

In order of rising koff:
1. B23  0.000411 s⁻¹
2. B21  0.000599 s⁻¹
3. B22  0.00761 s⁻¹

In order of falling kon:
1. B22  3.69e+06 M⁻¹ s⁻¹
2. B21  1.34e+06 M⁻¹ s⁻¹
3. B23  1.23e+06 M⁻¹ s⁻¹

target: T1, recombinant SARS-CoV-2 RBD with …; assay: not given; remark: another data set of the same source

In order of falling Kd:
1. B29  11.3 nM
2. B25  3.13 nM
3. B24  1.21 nM

In order of falling IC50:
1. B26  110 nM
2. B28  12.6 nM
3. B29  11.9 nM
4. B27  8.7 nM
5. B25  3.9 nM
